In publication PMC5263102 one finds % Receptor Occupied, koff and kon data, which are given here for one substance.

This test concerns the target chimeric FcεRI (human α, rat β/γ) on hRBL^rαKO cells (human | rat (endogenous in RBL-2H3)) (UniProt P12319). In words: flow cytometry on cells. For orientation: A flow cytometer gives signals particle by particle.
Sequence of UniProt P12319 (P12319 26-257, change not shown, chain 1 of 3): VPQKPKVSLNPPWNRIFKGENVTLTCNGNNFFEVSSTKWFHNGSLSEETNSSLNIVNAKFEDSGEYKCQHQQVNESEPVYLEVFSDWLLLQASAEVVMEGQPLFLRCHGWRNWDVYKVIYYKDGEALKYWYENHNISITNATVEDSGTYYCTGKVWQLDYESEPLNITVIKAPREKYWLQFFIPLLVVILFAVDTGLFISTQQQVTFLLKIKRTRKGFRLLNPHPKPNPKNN
Sequence of UniProt P12319 (P13386 whole entry, change not shown, chain 2 of 3, further chain): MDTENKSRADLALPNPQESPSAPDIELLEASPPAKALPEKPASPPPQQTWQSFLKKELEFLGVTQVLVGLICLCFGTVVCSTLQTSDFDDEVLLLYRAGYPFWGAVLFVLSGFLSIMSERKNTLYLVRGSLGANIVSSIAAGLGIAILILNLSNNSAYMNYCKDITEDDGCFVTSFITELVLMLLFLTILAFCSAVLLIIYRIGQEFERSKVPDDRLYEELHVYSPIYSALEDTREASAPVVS
Sequence of UniProt P12319 (P20411 19-86, change not shown, chain 3 of 3, further chain): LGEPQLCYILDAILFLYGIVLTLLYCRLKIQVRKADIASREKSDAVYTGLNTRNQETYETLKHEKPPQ

“human IgE, Alexa 488-conjugated (hIgE^Alexa-488) (antibody)” showed a % Receptor Occupied at 3.75 ng/ml IgE of 0.16%, a % Receptor Occupied at 7.5 ng/ml IgE of 0.26%, a % Receptor Occupied at 15 ng/ml IgE of 0.44% and a % Receptor Occupied at 30 ng/ml IgE of 1.1%. The substance also displayed a % Receptor Occupied at 60 ng/ml IgE of 1.89%, a % Receptor Occupied at 120 ng/ml IgE of 4%, a % Receptor Occupied at 1000 ng/ml IgE of 28% and a % Receptor Occupied at 4000 ng/ml IgE of 60%. In addition, the % Receptor Occupied at 8000 ng/ml IgE came to 78%, the % Receptor Occupied at 10000 ng/ml IgE amounted to 83%, the % Receptor Occupied at 15000 ng/ml IgE stood at 93% and the % Receptor Occupied at 20000 ng/ml IgE came out at 100%. In addition, the dissociation rate constant (koff) was found to be 1.53e-05 s⁻¹ and the on-rate (kon) came to 6230 M⁻¹ s⁻¹.

In general, koff refers to a measure of how fast the partners let go of each other. One may read the kon as a measure of how fast the partners come together. A lower kon goes with slower complex formation.
